Where a chain is given by its changes, count along the chain named. Names may count otherwise.
T1: CHCHD4 (human (endogenous in HEK293), UniProt Q8N4Q1 1-142)
T1 construct: CHCHD4, mammalian homologue of yeast Mia40; endogenous protein of HEK293 cells, precipitated with polyclonal anti-CHCHD4 antibodies (Proteintech); source: endogenous, HEK293 lysate
T1 sequence (looked up): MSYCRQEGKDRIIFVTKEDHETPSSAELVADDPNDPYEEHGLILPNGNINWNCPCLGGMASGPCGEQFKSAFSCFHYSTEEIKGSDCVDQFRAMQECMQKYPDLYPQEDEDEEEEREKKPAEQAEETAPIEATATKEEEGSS

B1: PINK1‐EGFP A168P (natural protein, UniProt Q9BXM7 78-581, looked up)
chain: AARLQRQFVVRAWGCAGPCGRAVFLAFGLGLGLIEEKQAESRRAVSACQEIQAIFTQKSKPGPDPLDTRRLQGFRLEEYLIGQSIGKGCSPAVYEATMPTLPQNLEVTKSTGLLPGRGPGTSAPGEGQERAPGAPAFPLAIKMMWNISAGSSSEAILNTMSQELVPASRVALAGEYGAVTYRKSKRGPKQLAPHPNIIRVLRAFTSSVPLLPGALVDYPDVLPSRLHPEGLGHGRTLFLVMKNYPCTLRQYLCVNTPSPRLAAMMLLQLLEGVDHLVQQGIAHRDLKSDNILVELDPDGCPWLVIADFGCCLADESIGLQLPFSSWYVDRGGNGCLMAPEVSTARPGPRAVIDYSKADAWAVGAIAYEIFGLVNPFYGQGKAHLESRSYQEAQLPALPESVPPDVRQLVRALLQREASKRPSARVAANVLHLSLWGEHILALKNLKLDKMVGWLLQQSAATLLANRLTEKCCVETKMKMLFLANLECETLCQAALLLCSWRAAL
notes: PINK1 as in PINK1-EGFP with the PD-associated mutation A168P; also called PINK1 A168P; PD‐associated mutant; source: HEK293, transfected, in lysate; not shown: EGFP (from the vector pEGFP-N3), C-terminal, kept
B2: PINK1‐EGFP V170G (natural protein, UniProt Q9BXM7 78-581, looked up)
chain: B1 chain with P91A, V93G
notes: PINK1 as in PINK1-EGFP with the PD-associated mutation V170G; also called PINK1 V170G; PD‐associated mutant; source: HEK293, transfected, in lysate; not shown: EGFP (from the vector pEGFP-N3), C-terminal, kept
B3: PINK1‐EGFP Y171S (natural protein, UniProt Q9BXM7 78-581, looked up)
chain: B1 chain with P91A, Y94S
notes: PINK1 as in PINK1-EGFP with Y171S; also called Y171S point mutant; source: HEK293, transfected, in lysate; not shown: EGFP (from the vector pEGFP-N3), C-terminal, kept

Columns and labels:
[1] = target: CHCHD4 (human (endogenous in HEK293)) (UniProt Q8N4Q1); experiment: co-IP; HEK293 cells transfected with PINK1-EGFP or its mutants for 24 hr; lysed; immunoprecipitation of endogenous CHCHD4 with anti-CHCHD4 antibody; immunoblot; level in the precipitant compared to input
[2] = target: T1, CHCHD4; experiment: as above; settings: partners not purified

Row | Molecule | relative level in the precipitants as compared to input [1] | relative level in the precipitants as compared to input [2]
1 | PINK1‐EGFP ∆166‐171 (AA166‐171 deletion) (from UniProt Q9BXM7 78-581) (natural protein) | 1.01 | 
2 | B1 |  | 0.2
3 | B2 |  | 0.39
4 | B3 |  | 3.31
